Data from PMC6864339.
Where two headings read alike, the source gives them in different places.

Tests used:
[1] = target: Insulin; test: BLI
[2] = target: Insulin; test: BLI; remark: listed apart in the source

B1: Recombinant mouse secretagogin (SCGN) (natural protein)
chain: MDNARRKTPARLDAACFWQIWQRFDKEEKGYIRETELDAFFDHLLAKSGTEDTLMEENVQKVKEQLMTSHNVSKEGRILMKELASMFLSEDENFLLFFRLETPLDNSVEFMQIWRKYDADSSGFISAAELCNFLRDLFLHHKKNISEAELEEYTSTMMKIFDKNKDGRLDLNDLARILALQENFLLQFKMDASSTEERKRDFEKIFAHYDVSKTGALEGPEVDGFVKDMMELVQPSISGVDLDKFREILLRHCDVNKDGKIQKSELALCLGLKINP
- Kd [1]: 1800 nM
- koff [1]: 0.001 s⁻¹
- kon [1]: 720 M⁻¹ s⁻¹
- Kd [2]: 1400 nM
- koff [2]: 0.0006 s⁻¹
